Assays:
[1] = system: mGluR-evoked Ca^+2 responses in Purkinje cells; test: Fura-2 ratio imaging of quisqualate-evoked Ca2+ mobilization in transfected cerebellar Purkinje cells; type: cell-based, mouse; details: for mGluR-evoked Ca^+2 response amplitude / mGluR-evoked Ca^+2 response latency: mean±SEM, transfected Purkinje cells, quisqualate micropressure pulse, Ca^+2-free external saline
Description: The truncated Homer protein used lacks the coiled-coil domain and is unable to form a bridge linking the mGluR at the cell surface with intracellular inositol trisphosphate receptors. The truncated form of Homer protein resembled Homer 1a with the exception of 11 residues at the carboxy-terminal. This form of Homer results in enhanced expression of Homer protein as compared with transfection of Homer 1a in heterologous cells. The Homer protein was introduced into Purkinje cells in primary cerebellar cultures and glutamate induced effects on calcium mobilization was measured.
Embryonic mouse cerebellar cultures were prepared and maintained according to the method of Schilling et al. (Schilling et al., Neuron 7:891 1991). At 4-5 DIV, cultures were transfected with plasmids coding for E-GFP (Clontech) and either full-length Homer 1b or an IEG form of Homer 1. The IEG form of Homer 1 was a 186 amino acid amino-terminal fragment of Homer 1b. Plasmids were purified by cesium banding. Three combinations of the plasmids were transfected. Group I (control), 20 Tg of E-GFP and 40 Tg of pRK5 vector; group II, 20 Tg of E-GFP and 40 Tg of pRK5 Homer 1 IEG; group III: 20 Tg of E-GFP and 40 Tg of pRK5 Homer 1b. Plasmid DNA was mixed with gold particles (0.6 micron), and coated onto plastic tubing. DNA was then ballistically transfected into cells according to the manufacturer's protocol (Helios Gene Gun System, BIO-RAD). After transfection, cultures were returned to the incubator and maintained for an additional […] for a total of 7-8 DIV at the time of use for imaging experiments.
Patch electrodes were attached to the somata of GFP-expressing Purkinje cells and a holding potential of −60 mV was applied. Micropressure electrodes (1 Tm tip diameter) were filled with quisqualate (100 Tm in external saline) and were positioned ˜20 Tm away from large-caliber dendrites. Test pulses were delivered using positive pressure (6 psi, 1 sec). Cells were bathed in a solution that contained (in mM) NaCl (140), KCl (5), EGTA (0.2), MgCl2 (0.8), HEPES (10), glucose (10), tetrodotoxin (0.005), and picrotoxin (0.1), adjusted to pH 7.35 with NaOH, which flowed at a rate of 0.5 ml/m The recording electrode contained CsCl (135), HEPES (10), fura-2 K5 salt (0.2), and Na2-ATP (4), adjusted to pH 7.35 with CSOH. Patch electrodes yielded a resistance of 3-5 MA when measured with the internal and external salines described above.
Fura-2 ratio imaging of intracellular free Ca^2+, was accomplished by measuring the background corrected fluorescence ratio at 340 and 380 nm excitation using a cooled CCD camera system, as previously described (Linden et al., J Neurosci 15:5098 1995). Exposure times were 200 msec per single wavelength image. Experiments were conducted at room temperature. Enhanced GFP is weakly excited by illumination in the 380-400 nm spectrum. Based upon the bandpass characteristics of our 340HT15 and 380HT10 excitation filters and the absorption spectrum of enhanced GFP (Clontech), we estimate that <1% of the signal at 340 nm excitation and <5% of the signal at 380 nm excitation is contributed by GFP, even in those cells where the fura/GFP loading ratio is smallest. This could lead to a small (<5%) systemic underestimation of free calcium concentration that should distribute randomly across experimental groups.
Calcium mobilization in the absence of influx was measure by ratio imaging fura-2 in Purkinje cells bathed in Ca^+2-free external saline and stimulated with a micropressure pulse of quisqualate, a metabotropic glutamate receptor agonist (Linden, Neuron 17:483 1996). […] The decay phase of the Ca^+2 response appeared somewhat slower in neurons transfected with the truncated form. […]

[2] = target: binding of mGluR1a or mGluR5 to each of the Homer family members; test: Synthetic peptide block of mGluR1a/mGluR5 binding to Homer family members; details: synthetic 10 mer peptides, read-out: peptide concentration at which approximately half of the binding was blocked
Method: This exquisite sensitivity of Homer binding to changes in single amino acids within the Homer-ligand site was confirmed in other Homer-interacting proteins including mGluR1a (Tu et al., 1998), Shank (Tu et al., 1999), and I42 (see below). To further confirm that the interaction was mediated by a direct interaction at the Homer-ligand site (as opposed to a secondary allosteric effect on a remote binding site), synthetic 10-mer peptides with either the wild type, or F-to-R mutation were prepared. The wild type peptide blocked binding of mGluR1a or mGluR5 to each of the Homer family members (Tu et al., 1998). Approximately half of the binding was blocked at a peptide concentration of 3.4 micromolar.
Mutations of mGluR5 were initially tested in the context of a 250aa C-terminal fragment, but were also determined to have an identical effect on binding when placed in the full length mGluR5 protein (Tu et al., 1998). This exquisite sensitivity of Homer binding to changes in single amino acid within the Homer-ligand site has been confirmed in other Homer-interacting proteins including mGluR1a (Tu et al., 1998), Shank (Tu et al., 1999) and I42 (see below). […] Approximately half of the binding was blocked at a peptide concentration of 3.4 micromolar.

| Molecule | mGluR-evoked Ca^+2 response amplitude [1] | mGluR-evoked Ca^+2 response latency [1] | other results |
| --- | --- | --- | --- |
| C1CCC[C@H]2CCCN3CC[C@@H](CCCCCC[C@@H]4CCCN5CC[C@@H](CC1)O[C@@H]45)O[C@@H]23 [xestospongin C, reference compound] |  |  | block of quisqualate-evoked Ca^+2 transient ([1]; 1 TM in the internal saline): completely blocked |
| synthetic 10 mer peptide with the wild type Homer-ligand site; possibly SEQ ID NO:14 ALTPPSPFRD (extended region for peptide binding) [wild type peptide] |  |  | IC50 [2]: ~3.4 µM |
| CC(N)(C(=O)O)c1ccc(C(=O)O)cc1 (single isomer, unassigned; (+)) [(+)-MCPG, reference compound] |  |  | block of quisqualate-evoked Ca^+2 transient ([1]; 500 TM in the bath): completely blocked |
| Homer 1b: full-length Homer 1b expressed from pRK5 plasmid in Purkinje cells (protein, listed as Homo sapiens) MGEQPIFSTRAHVFQIDPNTKKNWVPTSKHAVTVSYFYDSTRNVYRIISLDGSKAIINSTITPNMTFTKTSQKFGQWADSRANTVYGLGFSSEHHLSKFAEKFQEFKEAARLAKEKSQEKMELTSTPSQESAGGDLQSPLTPESINGTDDERTPDVTQNSEPRAEPTQNALPFSHSSAISKHWEAELATLKGNNAKLTAALLESTANVKQWKQQLAAYQEEAERLHKRVTELECVSSQANAVHTHKTELNQTIQELEETLKLKEEEIERLKQEIDNARELQEQRDSLTQKLQEVEIRNKDLEGQLSDLEQRLEKSQNEQEAFRNNLKTLLEILDGKIFELTELRDNLAKLLECS | 244 ± 17 nM | 4.2 ± 0.9 s |  |
| truncated form of Homer: 186 amino acid amino-terminal fragment of Homer 1b, lacks the coiled-coil domain, expressed by transfection (protein, left off: small tags and cut ends, 186 amino acid amino-terminal fragment of Homer 1b, lacks the coiled-coil domain, expressed by transfection) MGEQPIFSTRAHVFQIDPNTKKNWVPTSKHAVTVSYFYDSTRNVYRIISLDGSKAIINSTITPNMTFTKTSQKFGQWADSRANTVYGLGFSSEHHLSKFAEKFQEFKEAARLAKEKSQEKMELTSTPSQESAGGDLQSPLTPESINGTDDERTPDVTQNSEPRAEPTQNALPFPHSSAISKHWEAE | 170 ± 9 nM | 10.5 ± 1.8 s |  |

Source: patent publication US7378498B2, “Protein encoded by a nucleic acid” (The Johns Hopkins University School of Medicine, priority 1998, dated 2008)
